Results as given in patent US20190315854A1 (BEIJING VDJBIO, published 2019).

T1: sIL-6R (soluble IL-6 receptor; SBH Sciences) (human, UniProt P08887 20-365)
T1 construct: also called human IL-6R
T1 sequence: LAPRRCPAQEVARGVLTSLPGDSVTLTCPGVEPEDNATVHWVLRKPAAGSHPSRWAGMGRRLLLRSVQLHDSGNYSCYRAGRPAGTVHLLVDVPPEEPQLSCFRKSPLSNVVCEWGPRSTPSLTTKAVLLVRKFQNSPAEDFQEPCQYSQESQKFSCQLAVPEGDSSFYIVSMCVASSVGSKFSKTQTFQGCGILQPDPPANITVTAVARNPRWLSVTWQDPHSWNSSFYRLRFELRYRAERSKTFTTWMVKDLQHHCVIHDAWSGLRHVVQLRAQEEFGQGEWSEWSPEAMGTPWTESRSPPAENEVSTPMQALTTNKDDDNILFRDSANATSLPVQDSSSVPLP


biological target: T1, sIL-6R (soluble IL-6 receptor; SBH …); assay: SPR (BIAcore 3000), antibody on chip, sIL-6R analyte, 25 C
Experimental: All SPR measurements were performed on a BIAcore 3000 instrument (GE Biosciences, Piscataway, N.J.). BIAcore Software-BIAcore 3000 Control Software V3.2 was used for the operation and control of the BIAcore 3000 instrument. BiaEvaluation Software V4.1 was used for the analysis of SPR data from the BIAcore 3000 instrument and data was plotted using Graph Pad Prism Software Version 5. […] The indicated antibodies were used as the ligand for the construction of the reference channel of the chip. […] Each sample was injected for 3 min at a flow rate of 30 μL/min to allow for binding to chip-bound antibody. Next, binding buffer without analyte was sent over the chip at the same flow rate to allow for dissociation of bound analyte. After 500s, remaining bound analyte was removed by injecting regeneration solution (1M Formic acid). Data was analyzed by using the Kinetics Wizard and the manual fitting programs that are both included with the BiaEvaluation Software V4.1.

Row | Binder | Kd [nM] | Relative Affinity | koff [s⁻¹] | kon [M⁻¹ s⁻¹]
1 | 227# (antibody, human IgG1, kappa, V domains shown, also called Sample # 227) VH: QVQLQESGPGLVRPSQTLSLTCTVSGYSITSDHAWSWVRQPPGRGLEWIGYISYSGMITYNPSLKSRVTMLRDTSKNQFSLRLSSVTAADTAVYYCARSLARATAMDYWGQGSLVTVSS VL: DIQMTQSPSSLSASVGDRVTITCRASQDISSYLNWYQQKPGKAPKLLIYYTSRLHSGVPSRFSGSGSGTDFTFTISSLQPEDIATYYCQQGNTLPYTFGQGTKVEIKR | 0.477 | 6.6 fold vs 25 (Tocilizumab) | 6.9e-05 | 144000
2 | 232# (antibody, human IgG1, kappa, V domains shown) VH: QVQLQESGPGLVRPSQTLSLTCTVSGYSITSDHAWSWVRQPPGRGLEWIGYISYSGMITYNPSLKSRVTMLRDTSKNQFSLRLSSVTAADTAVYYCARTLARMTAMDYWGQGSLVTVSS VL: DIQMTQSPSSLSASVGDRVTITCRASQDISSYLNWYQQKPGKAPKLLIYYTSRLHSGVPSRFSGSGSGTDFTFTISSLQPEDIATYYCQQGNTLPYTFGQGTKVEIKR | 0.319 | 9.9 fold vs 25 (Tocilizumab) | 4.81e-05 | 151000
3 | 230# (antibody, human IgG1, kappa, V domains shown, also called Sample # 230) VH: QVQLQESGPGLVRPSQTLSLTCTVSGYSITSDHAWSWVRQPPGRGLEWIGYISYSGMITYNPSLKSRVTMLRDTSKNQFSLRLSSVTAADTAVYYCARCLARTTAIDFWGQGSLVTVSS VL: DIQMTQSPSSLSASVGDRVTITCRASQDISSYLNWYQQKPGKAPKLLIYYTSRLHSGVPSRFSGSGSGTDFTFTISSLQPEDIATYYCQQGNTLPYTFGQGTKVEIKR | 0.448 | 7.1 fold vs 25 (Tocilizumab) | 6.15e-05 | 137000
4 | 233# (antibody, human IgG1, kappa, V domains shown) VH: QVQLQESGPGLVRPSQTLSLTCTVSGYSITSDHAWSWVRQPPGRGLEWIGYISYSGMITYNPSLKSRVTMLRDTSKNQFSLRLSSVTAADTAVYYCARTLARTTAIDFWGQGSLVTVSS VL: DIQMTQSPSSLSASVGDRVTITCRASQDISSYLNWYQQKPGKAPKLLIYYTSRLHSGVPSRFSGSGSGTDFTFTISSLQPEDIATYYCQQGNTLPYTFGQGTKVEIKR | 0.387 | 8.2 fold vs 25 (Tocilizumab) | 5.75e-05 | 149000
5 | 228# (antibody, human IgG1, kappa, V domains shown, also called Sample # 228) VH: QVQLQESGPGLVRPSQTLSLTCTVSGYSITSDHAWSWVRQPPGRGLEWIGYISYSGMTTYNPSLKSRVTMLRDTSKNQFSLRLSSVTAADTAVYYCARCLARMTAIDFWGQGSLVTVSS VL: DIQMTQSPSSLSASVGDRVTITCRASQDISSYLNWYQQKPGKAPKLLIYYTSRLHSGVPSRFSGSGSGTDFTFTISSLQPEDIATYYCQQGNTLPYTFGQGTKVEIKR | 0.204 | 15.5 fold vs 25 (Tocilizumab) | 3.04e-05 | 149000
6 | 229# (antibody, human IgG1, kappa, V domains shown) VH: QVQLQESGPGLVRPSQTLSLTCTVSGYSITSDHAWSWVRQPPGRGLEWIGYISYSGMITYNPSLKSRVTMLRDTSKNQFSLRLSSVTAADTAVYYCARSLARMTAIDFWGQGSLVTVSS VL: DIQMTQSPSSLSASVGDRVTITCRASQDISSYLNWYQQKPGKAPKLLIYYTSRLHSGVPSRFSGSGSGTDFTFTISSLQPEDIATYYCQQGNTLPYTFGQGTKVEIKR | 0.605 | 5.2 fold vs 25 (Tocilizumab) | 7.49e-05 | 124000

Now from value to binder:

Row | Kd [nM] | Relative Affinity | koff [s⁻¹] | kon [M⁻¹ s⁻¹] | Binder
7 | 0.297 | 10.6 fold vs 25 (Tocilizumab) | 3.81e-05 | 128000 | 235# (antibody, human IgG1, kappa, V domains shown) VH: QVQLQESGPGLVRPSQTLSLTCTVSGYSITSDHAWSWVRQPPGRGLEWIGYISYSGMITYNPSLKSRVTMLRDTSKNQFSLRLSSVTAADTAVYYCARTLARMTAIDFWGQGSLVTVSS VL: DIQMTQSPSSLSASVGDRVTITCRASQDISSYLNWYQQKPGKAPKLLIYYTSRLHSGVPSRFSGSGSGTDFTFTISSLQPEDIATYYCQQGNTLPYTFGQGTKVEIKR
8 | 0.202 | 15.6 fold vs 25 (Tocilizumab) | 3.61e-05 | 179000 | 241# (antibody, human IgG1, kappa, V domains shown) VH: QVQLQESGPGLVRPSQTLSLTCTVSGYSITSDHAWSWVRQPPGRGLEWIGYISYSGMTTYNPSLKSRVTMLRDTSKNQFSLRLSSVTAADTAVYYCARCLARMTAIDFWGQGSLVTVSS VL: DIQMTQSPSSLSASVGDRVTITCRASQDISSYLNWYQQKPGKAPKLLIYYTSRLHSGVPSRFSGSGSGTDFTFTISSLQPEDIATYYCGQGNRLPYTFGQGTKVEIKR
9 | 0.15 | 21.1 fold vs 25 (Tocilizumab) | 2.3e-05 | 154000 | 240# (antibody, human IgG1, kappa, V domains shown, also called Sample # 240) VH: QVQLQESGPGLVRPSQTLSLTCTVSGYSITSDHAWSWVRQPPGRGLEWIGYISYSGMITYNPSLKSRVTMLRDTSKNQFSLRLSSVTAADTAVYYCARSLARATAMDYWGQGSLVTVSS VL: DIQMTQSPSSLSASVGDRVTITCRASQDISSYLNWYQQKPGKAPKLLIYYTSRLHSGVPSRFSGSGSGTDFTFTISSLQPEDIATYYCGQGNRLPYTFGQGTKVEIKR
10 | 0.111 | 28.5 fold vs 25 (Tocilizumab) | 1.5e-05 | 135000 | 238# (antibody, human IgG1, kappa, V domains shown) VH: QVQLQESGPGLVRPSQTLSLTCTVSGYSITSDHAWSWVRQPPGRGLEWIGYISYSGMITYNPSLKSRVTMLRDTSKNQFSLRLSSVTAADTAVYYCARCLARTTAMDYWGQGSLVTVSS VL: DIQMTQSPSSLSASVGDRVTITCRASQDISSYLNWYQQKPGKAPKLLIYYTSRLHSGVPSRFSGSGSGTDFTFTISSLQPEDIATYYCGQGNRLPYTFGQGTKVEIKR
11 | 0.0829 | 38.1 fold vs 25 (Tocilizumab) | 1.53e-05 | 185000 | 236# (antibody, human IgG1, kappa, V domains shown) VH: QVQLQESGPGLVRPSQTLSLTCTVSGYSITSDHAWSWVRQPPGRGLEWIGYISYSGMTTYNPSLKSRVTMLRDTSKNQFSLRLSSVTAADTAVYYCARCLARATAMDYWGQGSLVTVSS VL: DIQMTQSPSSLSASVGDRVTITCRASQDISSYLNWYQQKPGKAPKLLIYYTSRLHSGVPSRFSGSGSGTDFTFTISSLQPEDIATYYCQQGNTLPYTFGQGTKVEIKR
12 | 0.164 | 19.3 fold vs 25 (Tocilizumab) | 2.36e-05 | 144000 | 239# (antibody, human IgG1, kappa, V domains shown) VH: QVQLQESGPGLVRPSQTLSLTCTVSGYSITSDHAWSWVRQPPGRGLEWIGYISYSGMITYNPSLKSRVTMLRDTSKNQFSLRLSSVTAADTAVYYCARCLARATAMDYWGQGSLVTVSS VL: DIQMTQSPSSLSASVGDRVTITCRASQDISSYLNWYQQKPGKAPKLLIYYTSRLHSGVPSRFSGSGSGTDFTFTISSLQPEDIATYYCGQGNRLPYTFGQGTKVEIKR
13 | 0.37 | 8.5 fold vs 25 (Tocilizumab) | 5.69e-05 | 154000 | 234# (antibody, human IgG1, kappa, V domains shown) VH: QVQLQESGPGLVRPSQTLSLTCTVSGYSITSDHAWSWVRQPPGRGLEWIGYISYSGMTTYNPSLKSRVTMLRDTSKNQFSLRLSSVTAADTAVYYCARCLARMTAMDYWGQGSLVTVSS VL: DIQMTQSPSSLSASVGDRVTITCRASQDISSYLNWYQQKPGKAPKLLIYYTSRLHSGVPSRFSGSGSGTDFTFTISSLQPEDIATYYCQQGNTLPYTFGQGTKVEIKR
